This is an account of results in patent US20050020519A1, “Modulation of insulin-regulated aminopeptidase (irap)/angiotensin iv (at4) receptor activity” (priority 2001, published 2005).

For test [1], the target named is T1, IRAP (Homo sapiens, UniProt Q9UIQ6).
T1 construct: expressed in transfected cells; host or cells: HEK 293T cells (solubilised membrane protein)
Description: IRAP enzymatic activity, hydrolysis of L-leucine-β-naphthylamide (fluorescence). The format is biochemical. An excerpt: For example, Hek293 cells stably transfected with a eukaryotic expression vector expressing the AT4 receptor gene may be utilized. An example of this is the vector pcDNA-3 containing the cDNA encoding the full length AT4 receptor. Two assay systems are used, one for each spliced variant of the human AT4 receptor gene. The assay system involves the measurement of the rate of hydrolysis of L-leucyl β-naphthylamide by the AT4 receptor. The rate of hydrolysis by the transfected cells is followed by recording the increase in fluorescence (excitation at 340 nm, emission at 410 nm) using a purpose-designed fluorimeter. Test compounds are added to the assay system, and their effects on the hydrolysis of L-leucyl β-naphthylamide are a direct indicator of their modulation of AT4 receptor activity.
Crude membranes were prepared from HEK 293 cells stably transfected with pcDNA-3 containing the cDNA encoding the full length AT4 receptor/IRAP, using the same method as that described for bovine adrenal membranes. The membranes were solubilised in 50 mM Tris-HCl containing 1% Triton-X100 at 4° C. for 16 h. The IRAP enzymatic activity was determined by the hydrolysis of a synthetic substrate, L-leucine-β-naphthylamide, and monitored by the release of a fluorogenic product on a spectrophotometer set at excitation 340 nm and emission 410 nm. One hundred μM of the substrate was added to 10 μg of solubilised membranes, and the increase in fluorescence monitored for 10 min.
Samples were assayed 2-3 times in triplicate, except controls, which were performed 5 times in triplicate.

The target of test [2] is T1, IRAP. Description: Degradation of peptides by IRAP expressed in HEK 293T cells, HPLC with mass spectrometric detection. The format is biochemical. As to conditions: for Substrate disappearance over 4 hr: 37° C., hIRAP transfected HEK 293T membranes, (=UT) equals untransfected control cells; for Products Identified: incubation at 37° C. with solubilized membrane protein from hIRAP transfected HEK 293T cells; for cleavage by IRAP: up to 6 hr.
Description: At each time point (0, 0.5, 1, 2, 4 & 6 hr), an aliquot containing 5 μg peptide was removed, and the reaction stopped by addition of 4 volumes methanol/1% trifluoroacetic acid (TPA). Samples were dried on a centrifugal vacuum evaporator prior to HPLC analysis with on-line mass spectrometric detector. […] Fragments were identified following mass spectral analysis, using Agilent ChemStation deconvolution software.

Test [3] deals with human insulin-regulated aminopeptidase (IRAP) / angiotensin IV (AT4) receptor (human) (UniProt Q9UIQ6). Description: cell-based or functional assay.
A further test has as its target T2, AT4 receptor (Bos taurus, UniProt F1N1Q8).
T2 construct: from tissue; host or cells: bovine adrenal gland membranes
T2 sequence (F1N1Q8 1-1022): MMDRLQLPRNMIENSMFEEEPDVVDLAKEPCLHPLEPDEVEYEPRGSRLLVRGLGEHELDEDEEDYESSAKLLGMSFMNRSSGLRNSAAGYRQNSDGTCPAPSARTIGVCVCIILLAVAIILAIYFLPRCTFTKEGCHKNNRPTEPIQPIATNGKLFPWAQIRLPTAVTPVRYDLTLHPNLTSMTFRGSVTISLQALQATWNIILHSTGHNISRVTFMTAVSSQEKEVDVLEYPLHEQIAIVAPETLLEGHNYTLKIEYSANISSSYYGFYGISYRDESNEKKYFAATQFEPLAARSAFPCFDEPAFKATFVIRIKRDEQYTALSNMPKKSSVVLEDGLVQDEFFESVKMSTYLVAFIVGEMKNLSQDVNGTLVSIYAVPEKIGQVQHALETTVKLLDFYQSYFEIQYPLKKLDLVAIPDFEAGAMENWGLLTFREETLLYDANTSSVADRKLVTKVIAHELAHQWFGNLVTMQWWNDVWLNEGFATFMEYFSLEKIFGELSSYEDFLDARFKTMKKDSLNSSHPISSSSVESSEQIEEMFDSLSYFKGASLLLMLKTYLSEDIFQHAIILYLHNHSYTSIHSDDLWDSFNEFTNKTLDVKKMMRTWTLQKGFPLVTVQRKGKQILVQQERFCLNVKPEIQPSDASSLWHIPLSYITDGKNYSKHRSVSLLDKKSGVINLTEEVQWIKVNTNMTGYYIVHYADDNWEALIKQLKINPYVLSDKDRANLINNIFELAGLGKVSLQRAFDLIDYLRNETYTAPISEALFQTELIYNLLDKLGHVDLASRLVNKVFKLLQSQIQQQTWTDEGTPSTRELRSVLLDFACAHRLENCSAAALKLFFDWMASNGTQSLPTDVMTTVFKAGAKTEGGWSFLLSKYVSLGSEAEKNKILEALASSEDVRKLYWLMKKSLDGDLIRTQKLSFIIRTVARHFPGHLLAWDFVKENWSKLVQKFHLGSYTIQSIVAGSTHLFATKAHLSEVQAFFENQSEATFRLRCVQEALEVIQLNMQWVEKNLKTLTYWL
Description: AT4 radioreceptor assay, ^125I-Ang IV binding to bovine adrenal membranes. How it is done: The AT4 radioreceptor assay was used to screen the sheep brain extracts for AT4 receptor modulatory activity. The membranes were prepared using bovine adrenal glands obtained from the abattoir. The adrenals were diced, homogenized in ice-cold hypotonic buffer (50 mM Tris, 5 mM EDTA, pH 7.4) and centrifuged for 10 min at 500 g. […] The resulting pellets were re-homogenized in hypotonic buffer. […] The samples were incubated for 2 h at 37° C., and the bound ligand was separated on Whatman GF/B glass fibre filters.

Test [4] deals with human insulin-regulated aminopeptidase (IRAP) / angiotensin IV (AT4) receptor (human) (UniProt Q9UIQ6). Description: radioligand displacement of 125I-Nle-Ang IV. For orientation: In a radioligand displacement assay an active substance lowers the binding of a labelled ligand.
The target is the same in test [5]. Description: radioligand binding, HEK 293 and CHO cells transfected with IRAP cDNA.
Test [6] has the same target. Description: competitive inhibition of L-leucine-β-naphthylamide cleavage by solubilised membranes of IRAP-transfected HEK 293 cells; Ki from IC50=Ki(1+[S]/Km).
Another test concerns the target T3, IRAP (AT4 receptor) (Homo sapiens, UniProt Q9UIQ6).
T3 construct: expressed in transfected cells; host or cells: HEK 293 cells (membranes)
Description: ^125I-Nle^1 Ang IV binding to membranes of HEK 293 cells transfected with IRAP cDNA. The text has this: The amount of radioligand bound to the membranes from HEK 293 cells transfected with IRAP cDNA was expressed as a percentage of radioligand bound to membranes from HEK 293 cells transfected with control plasmids.

The next test has as its system rats. Conditions: rat, in vivo, iv; cited from earlier work.
Another test relates to 3T3L1 cells. Description: 2-deoxyglucose uptake in differentiated 3T3L1 adipocytes.
The target in test [7] is human insulin-regulated aminopeptidase (IRAP) / angiotensin IV (AT4) receptor (human) (UniProt Q9UIQ6). Description: cell-based or functional assay. This is another data set of the same source.

“Also recorded” adds a separate entry of the source. Read-outs that look alike come from different tables or passages of the source. Where no end group is shown, it is not given here. [ ]: non-standard residue; d: D form. Cyt = cystine residue, as named in the source; pGlu = O=C1CC[C@@H](C(=O)O)N1

T1 sequence (Q9UIQ6 whole entry): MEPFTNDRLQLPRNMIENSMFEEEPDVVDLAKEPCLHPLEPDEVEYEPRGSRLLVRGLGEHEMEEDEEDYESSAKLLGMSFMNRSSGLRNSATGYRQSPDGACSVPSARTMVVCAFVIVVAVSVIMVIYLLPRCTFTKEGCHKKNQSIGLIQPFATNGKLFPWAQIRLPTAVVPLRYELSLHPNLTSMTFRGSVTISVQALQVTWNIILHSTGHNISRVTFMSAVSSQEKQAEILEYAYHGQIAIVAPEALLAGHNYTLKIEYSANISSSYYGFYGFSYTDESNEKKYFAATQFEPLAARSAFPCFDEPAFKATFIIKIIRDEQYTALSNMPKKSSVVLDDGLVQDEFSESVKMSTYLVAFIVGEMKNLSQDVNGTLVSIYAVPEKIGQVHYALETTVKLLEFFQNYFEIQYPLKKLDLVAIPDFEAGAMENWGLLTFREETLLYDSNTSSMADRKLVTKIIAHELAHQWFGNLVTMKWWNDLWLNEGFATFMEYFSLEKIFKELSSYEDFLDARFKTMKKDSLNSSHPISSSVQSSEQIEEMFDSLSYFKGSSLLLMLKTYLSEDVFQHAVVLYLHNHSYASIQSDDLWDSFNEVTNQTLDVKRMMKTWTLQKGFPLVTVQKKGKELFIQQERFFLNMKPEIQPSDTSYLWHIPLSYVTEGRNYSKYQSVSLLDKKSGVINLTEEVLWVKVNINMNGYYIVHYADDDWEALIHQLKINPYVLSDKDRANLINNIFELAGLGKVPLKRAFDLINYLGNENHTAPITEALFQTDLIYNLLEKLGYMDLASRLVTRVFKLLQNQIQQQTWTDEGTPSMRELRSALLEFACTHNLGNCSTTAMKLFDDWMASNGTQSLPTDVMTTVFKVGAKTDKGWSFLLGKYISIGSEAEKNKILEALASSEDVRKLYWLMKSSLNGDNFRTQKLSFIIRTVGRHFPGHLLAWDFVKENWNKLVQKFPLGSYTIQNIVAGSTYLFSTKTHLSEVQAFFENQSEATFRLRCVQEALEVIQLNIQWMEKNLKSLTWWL
Chain of human insulin-regulated aminopeptidase (IRAP) / angiotensin IV (AT4) receptor (human) (Q9UIQ6 whole entry): as above
T3 sequence (Q9UIQ6 whole entry): as above
Description for 3T3L1 cells: The effect of IRAP inhibitors on the regulation of glucose uptake was determined in 3T3L1 cells. 3T3L1 fibroblasts were differentiated by the addition of DMEM containing 5% fetal calf serum, 4 μg/ml insulin, 0.25 mM dexamethasone and 0.5 mM 3-isobutyl-1-methyl-xanthine. […] The reaction was stopped after 10 min by washing the cells in PBS. The cells were then solubilized in 0.5 N NaOH and counted.

A word on the inhibition: it is how much of the control response was suppressed. The low end stands for little suppression, the high end for strong suppression. At IRAP [1] (100 μM amastatin), `CC(C)C[C@@H](N)[C@H](O)C(=O)N[C@H](C(=O)N[C@H](C(=O)N[C@@H](CC(=O)O)C(=O)O)C(C)C)C(C)C` [amastatin] yielded an inhibition at 100 µM of 25%.
In the case of “α-neo-Endorphin (YGGFLRKYPK) [opioid peptide, 10 residues]”, in the test with IRAP [2], the “Substrate disappearance over 4 hr” value was 9%; the “Products Identified” value is reported as “GGFLRKYPK,; also recorded: GFLRKYPK, FLRKYPK”; the “cleavage by IRAP” value is recorded as “at least three N-terminal residues were cleaved”.
The corresponding values for Met-enkephalin are 65%, “GGFM” and “most rapidly cleaved”.
Regarding “Neurotensin (from UniProt P30990 151-163) (peptide)”, the Substrate disappearance over 4 hr in test [3] amounted to 22%.
For VYPWT, the “AT4 receptor/IRAP binding activity of fragment” value on AT4 receptor (structure-activity study on LVVYPWTQRF) was “retained full AT4 receptor/IRAP binding activity”.
As for KYLPGPLQ, on AT4 receptor (bovine adrenal membranes, synthetic peptides, read-out: affinity in competing for ^125I-Ang IV binding), the Ki lay in the range of 1 to 5 nM.
With “α-Endorphin (YGGFMTSEKSQTPLVT) [16 residues, first five identical to met-enkephalin]”, in the test with IRAP [2], the “Substrate disappearance over 4 hr” value is listed as “None”, the “Products Identified” value is given as “None” and the “cleavage by IRAP” value is “not cleaved at all”.
“arginine-vasopressin (from UniProt P01185 20-28) (peptide)” displayed an IC50 of inhibition of L-leucine-β-naphthylamide cleavage in test [3] of more than 40000 nM.
Turning to acetylated AVP [AcAVP], in the test with IRAP [2], the “Substrate disappearance over 4 hr” value is “None”, the “Products Identified” value was “None” and the “cleavage by IRAP” value is “No cleavage”.
In [3], “α-neo-Endorphin (from UniProt P01213 175-184) (peptide)” had a Substrate disappearance over 4 hr of 9%.
In the case of `CC[C@H](C)[C@@H]1NC(=O)[C@H](Cc2ccc(O)cc2)NC(=O)[C@@H](N)CSSC[C@@H](C(=O)N2CCC[C@H]2C(=O)N[C@@H](CC(C)C)C(=O)NCC(N)=O)NC(=O)[C@H](CC(N)=O)NC(=O)[C@H](CCC(N)=O)NC1=O` [OXY, oxytocin], at IRAP [2], the “Substrate disappearance over 4 hr” value is given as 37%, the “Products Identified” value is reported as “YIQNCytPLG-NH2” and the “cleavage by IRAP” value was “most rapidly cleaved”.
The molecule “oxytocin (from UniProt P01178 20-28) (peptide)” had a Substrate disappearance over 4 hr in test [3] of 37%.
Turning to “GnRH: peptide tested as potential IRAP substrate”, in the test with IRAP [2], the “Substrate disappearance over 4 hr” value is listed as “None”, the “Products Identified” value is “None” and the “cleavage by IRAP” value is given as “No cleavage”.
Take “Angiotensin III (from UniProt P01019 26-32) (peptide)”: in test [3], the Substrate disappearance over 4 hr was 7%.
Regarding angiotensin III [Ang III], in the test with IRAP [2], the “Substrate disappearance over 4 hr” value is 7% (=UT) and the “Products Identified” value is “RVYIHP”.
Turning to `CC(C)C[C@H](NC(=O)[C@@H](O)[C@H](N)Cc1ccccc1)C(=O)O` [bestatin], the inhibition at 10 µM against IRAP [1] (10 μM bestatin) stood at 60%.
A word on the IC50: it is the concentration needed to halve the response being measured. High values mean lower potency, low ones higher potency. Regarding Nle^1-Ang IV (Nle-YIHPF) (peptide), in test [3], the IC50 inhibition leucine β-naphthylamide was 600 nM and the Substrate disappearance over 4 hr came to 16%. The molecule also returned a half-inhibitory concentration (IC50) in [4] of 3.32 nM. In addition, the fold increase in specific binding sites over control cells in test [5] fell in the range of 10 to 20 fold. Besides, the Ki in test [6] stood at 340 nM.
For angiotensin II (DRVYIHPF) [Ang II], in the test with IRAP [2], the “Substrate disappearance over 4 hr” value is recorded as “None”, the “Products Identified” value is “None” and the “cleavage by IRAP” value is “no cleavage”.
On to “[pGlu^4Cyt^6]AVP(4-9) ([pGlu]N[Cyt]PRG; ends and bridges not checked; also: Cyt6: cystine at position 6, partner not given here) [pGlu^4Cyt^6AVP]”, for which, in the test with IRAP [2], the “Substrate disappearance over 4 hr” value is “None”, the “Products Identified” value was “None” and the “cleavage by IRAP” value is on record as “No cleavage”.
Turning to `NC(=O)CC[C@@H]1NC(=O)[C@H](Cc2ccccc2)NC(=O)[C@H](Cc2ccc(O)cc2)NC(=O)[C@@H](N)CSSC[C@@H](C(=O)N2CCC[C@H]2C(=O)N[C@@H](CCCN=C(N)N)C(=O)NCC(N)=O)NC(=O)[C@H](CC(N)=O)NC1=O` [AVP, arginine-vasopressin], the half-maximal inhibitory concentration (IC50) on IRAP [1] was more than 40000 nM. At IRAP [2], the “Substrate disappearance over 4 hr” value was found to be 58%, the “Products Identified” value is on record as “YFQNCytPRG-NH2; also recorded: FQNCytPRG-NH2” and the “cleavage by IRAP” value is reported as “most rapidly cleaved”.
With Ang I: angiotensin peptide (DRVYIHPFHL), in the test with IRAP [2], the “Substrate disappearance over 4 hr” value is “None”, the “Products Identified” value is “None” and the “cleavage by IRAP” value is on record as “no cleavage”.
As to divalinal-Ang IV (peptide), in test [3], the IC50 inhibition leucine β-naphthylamide was determined as 4000 nM.
Molecule `CC(C)[C@H](N)CN[C@@H](Cc1ccc(O)cc1)C(=O)N[C@H](CN[C@@H](Cc1c[nH]cn1)C(=O)N1CCC[C@H]1C(=O)N[C@@H](Cc1ccccc1)C(=O)O)C(C)C` [Divalinal - Ang IV] showed an IC50 on IRAP (AT4 receptor) of 845 nM. Also, on IRAP [1], the IC50 was 4000 nM and the Ki is 2250 nM. Moreover, the “type of inhibition of IRAP” value at IRAP [1] (Lineweaver-Burk analysis) is “competitive inhibition”. Also, on IRAP [2], the “Substrate disappearance over 4 hr” value was “None”, the “Products Identified” value is given as “None” and the “cleavage by IRAP” value was “no cleavage”. Also, the “effect on the swim maze enhancement by Nle-angiotensin IV” value in the test on rats is listed as “blocked”.
Take insulin: the “glucose uptake under insulin stimulation” value with 3T3L1 cells (0.7 nM insulin) was 13.5±2.6 pmol/min/well; in the test on 3T3L1 cells (70 nM insulin) it was 19.7±1.18 pmol/min/well.
In the case of sar^1Ile^8-Ang II, in the test with IRAP [2], the “Substrate disappearance over 4 hr” value is on record as “None” and the “Products Identified” value was “None”.

B1: Met-enkephalin (peptide, UniProt P01210 100-104, looked up)
peptide: YGGFM
B1 registered a Substrate disappearance over 4 hr in test [7] of 65%.
